The record followed here is patent publication US20100074906A1.

This experiment deals with Varicella Zoster Virus (VZV) antigens (lysate of VZV-infected MRC-5 cells, VZV-infected MRC-5 cells, cell-free VZV; ELLEN strain) (Varicella Zoster Virus (ELLEN strain, ATCC VR-586)). The experiment can be described thus: cell-based or functional assay.

B1: FLAGhis-tagged DDF-VZV2 human Fab expressed using pDLac-VZV2-FLAGhis (Fab)
heavy: LESGGGLVQPGGSLRLSCEASGFTFSSYTMNWVRQAPGKGLEWVSWISSSGSDIYYAESVKGRFTISRDNAKNSLYLQMNSLRDEDTALYYCARDGIDSSSSWGGEPYFYTMDFWGQGTTVIVSSASTKGPSVFPLAPSSKSTSGGTAALGCLVKDYFPEPVTVSWNSGALTSGVHTFPAVLQSSGLYSLSSVVTVPSSSLGTQTYICNVNHKPSNTKVDKKVEPKSCDKTSDYKDDDDKHHHHHH
light: not shown
On to B1, for which the VZV-neutralizing activity, IC50 (plaque reduction) amounted to 2 µg/mL.

B2: FLAGhis-tagged DDF-VZV1 human Fab expressed using pDLac-VZV1-FLAGhis (Fab)
heavy: LESGPGLVKPSETLSLTCSVSGGSITTKDFSWAWIRQPPGKGLEWIGSIYYSGTTHYSPSLKSRVIMSVDTSDNKFSLSLTSVTAADTAVYYCARQLGRSPGIYSFWRDHRTSAFDFWGQGTLATVSAASTKGPSVFPLAPSSKSTSGGTAALGCLVKDYFPEPVTVSWNSGALTSGVHTFPAVLQSSGLYSLSSVVTVPSSSLGTQTYICNVNHKPSNTKVDKKVEPKSCDKTSDYKDDDDKHHHHHH
light: ELTQSPSSLSASVGDRVTITCRATQSISSYLSWYQQKPGQAPKLLIYGASNLQSGVPSRFSGSGSGTDFTLTINSLQPEDFATYYCQQTLSTPFTFGPGTRVDFKRTVAAPSVFIFPPSDEQLKSGTASVVCLLNNFYPREAKVQWKVDNALQSGNSQESVTEQDSKDSTYSLSSTLTLSKADYEKHKVYACEVTHQGLSSPVTKSFNRGEC
For B2, the VZV-neutralizing activity, IC50 (plaque reduction) turned out to be 2 µg/mL.
